The values below come from US20160229919A1 (US Dept. of Health and Human Services, published 2016).

Experiment [1] concerns the target human transferrin receptor (human) (UniProt P02786). Put plainly: cell-based or functional assay.
Experiment [2] shares this target. Put plainly: flow cytometry on YOU cells. (In general: Flow cytometry measures light scatter and fluorescence of single cells or particles in a stream.)
Experiment [3] shares this target. Put plainly: flow cytometry on L55 cells.
The target is the same in experiment [4]. Put plainly: flow cytometry on EKVX cells.
The target is the same in experiment [5]. Put plainly: flow cytometry on NCI-H322M cells.
Experiment [6] concerns the target cell-surface mesothelin on mesothelin-expressing cells (human) (UniProt Q13421). Put plainly: flow cytometry on NCI-H226 cells.
For experiment [7] the target is unchanged. The experiment is described as follows: flow cytometry on OVCAR8 cells.
Experiment [8] shares this target. The experiment is described as follows: flow cytometry on Mz-Cha-1 cells.
The target is the same in experiment [9]. Put plainly: cell-based or functional assay.
For experiment [10] the target is unchanged. Put plainly: flow cytometry on H9 cells.
Experiment [11] shares this target. The experiment is described as follows: flow cytometry on KMBC cells.
The target is the same in experiment [12]. Put plainly: flow cytometry on NCI-ADR-RES cells.
Experiment [13] has the same target. The experiment is described as follows: flow cytometry on YOU cells.
For experiment [14] the target is unchanged. The experiment is described as follows: flow cytometry on KMCH cells.
Experiment [15] shares this target. Put plainly: flow cytometry on L55 cells.
Experiment [16] has the same target. The experiment is described as follows: flow cytometry on H9 cells. This is another data set of the same source.
The target is the same in experiment [17]. Put plainly: flow cytometry on M30 cells.
Experiment [18] shares this target. Put plainly: flow cytometry on EKVX cells.
The target is the same in experiment [19]. Put plainly: flow cytometry on NCI-H322M cells.
For experiment [20], the target named is mesothelin Region I fragment (residues 296-390) (human, UniProt Q13421 296-390). Put plainly: ELISA on mesothelin fragments.
Sequence of mesothelin Region I fragment (residues 296-390) (Q13421 296-390): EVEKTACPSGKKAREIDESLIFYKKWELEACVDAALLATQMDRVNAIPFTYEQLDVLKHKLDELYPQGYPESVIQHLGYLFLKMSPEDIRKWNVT
Experiment [21] addresses recombinant mesothelin protein (full-length mesothelin) (human) (UniProt Q13421). The experiment is described as follows: ELISA, mAb titrated on mesothelin (1 ug/ml), fit with Prism. On the technique in general: An ELISA detects its analyte on a solid surface through an enzyme-linked reagent.
Experiment [22] deals with mesothelin-Fc fusion protein (human) (UniProt Q13421). Put plainly: sandwich ELISA: YP223 capture, mesothelin-Fc titrated, biotinylated YP218 detection.

Sequence of human transferrin receptor (human) (P02786 whole entry): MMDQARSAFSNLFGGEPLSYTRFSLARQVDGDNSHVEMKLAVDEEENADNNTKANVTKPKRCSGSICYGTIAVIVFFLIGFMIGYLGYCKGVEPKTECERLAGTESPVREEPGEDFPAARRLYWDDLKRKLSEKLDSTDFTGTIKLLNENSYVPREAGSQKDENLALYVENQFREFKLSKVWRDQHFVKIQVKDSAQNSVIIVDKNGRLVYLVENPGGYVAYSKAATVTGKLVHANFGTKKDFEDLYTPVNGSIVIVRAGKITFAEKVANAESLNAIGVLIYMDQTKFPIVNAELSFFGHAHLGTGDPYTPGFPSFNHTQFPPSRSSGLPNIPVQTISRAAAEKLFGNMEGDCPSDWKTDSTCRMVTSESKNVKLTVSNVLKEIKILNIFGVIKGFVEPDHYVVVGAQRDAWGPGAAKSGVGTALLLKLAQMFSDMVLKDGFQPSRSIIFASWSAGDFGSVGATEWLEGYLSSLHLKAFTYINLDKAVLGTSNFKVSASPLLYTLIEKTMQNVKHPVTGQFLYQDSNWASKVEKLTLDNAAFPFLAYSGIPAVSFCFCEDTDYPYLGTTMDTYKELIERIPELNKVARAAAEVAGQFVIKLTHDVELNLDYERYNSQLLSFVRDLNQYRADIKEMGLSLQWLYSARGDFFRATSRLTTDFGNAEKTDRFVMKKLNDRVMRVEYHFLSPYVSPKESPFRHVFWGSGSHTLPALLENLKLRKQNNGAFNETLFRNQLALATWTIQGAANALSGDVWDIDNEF

One may read the Kd as the constant that tells how readily two partners part at equilibrium. In experiment [1], HB21-PE40 immunotoxin had an IC50 (ng ml^-1), cytotoxicity on EKVX cells of 0.21 ng/mL; an IC50 (ng ml^-1), cytotoxicity on H226-GL cells of 0.22 ng/mL; an IC50 (ng ml^-1), cytotoxicity on L55 cells of 0.57 ng/mL; an IC50 (ng ml^-1), cytotoxicity on M30 cells of 0.51 ng/mL. Also, in experiment [1], the IC50 (ng ml^-1), cytotoxicity on NCI-ADR-RES cells worked out at 0.12 ng/mL and the IC50 (ng ml^-1), cytotoxicity on NCI-H322M cells amounted to 0.31 ng/mL. In experiment [2], the Kd amounted to 24.7 nM. In addition, in experiment [3], the Kd stood at 9.74 nM. The molecule also came in with a Kd in experiment [4] of 6.28 nM. This molecule registered a Kd in [5] of 6.05 nM.

Turning to SS1P immunotoxin, the Kd in experiment [6] came to 1.49 nM. In experiment [7], this molecule yielded a Kd of 0.6 nM. Besides, the Kd in experiment [8] stood at 1.3 nM. In [9], this molecule registered an IC50 (ng ml^-1), cytotoxicity on EKVX cells of 55.4 ng/mL; an IC50 (ng ml^-1), cytotoxicity on H9 cells of 0.076 ng/mL; an IC50 (ng ml^-1), cytotoxicity on H226-GL cells of 1.99 ng/mL; an IC50 (ng ml^-1), cytotoxicity on KMBC cells of 3.39 ng/mL. Further, in experiment [9], the IC50 (ng ml^-1), cytotoxicity on KMCH cells came to 7.23 ng/mL; the IC50 (ng ml^-1), cytotoxicity on L55 cells amounted to 5.89 ng/mL; the IC50 (ng ml^-1), cytotoxicity on M30 cells is 7.13 ng/mL; the IC50 (ng ml^-1), cytotoxicity on Mz-Cha-1 cells was 21.6 ng/mL. In addition, in experiment [9], the IC50 (ng ml^-1), cytotoxicity on NCI-ADR-RES cells came to 1.2 ng/mL; the IC50 (ng ml^-1), cytotoxicity on NCI-H226 cells came to 5.29 ng/mL; the IC50 (ng ml^-1), cytotoxicity on NCI-H322M cells stood at 4.02 ng/mL; the IC50 (ng ml^-1), cytotoxicity on OVCAR8 cells was 1.82 ng/mL. In [9], this molecule returned an IC50 (ng ml^-1), cytotoxicity on YOU cells of 13 ng/mL; an IC50 (ng/ml), cytotoxicity on RH16 mesothelioma patient primary cells of 10.4 ng/mL; an IC50 (ng/ml), cytotoxicity on RH18 mesothelioma patient primary cells greater than 100 ng/mL; an IC50 (ng/ml), cytotoxicity on RH19 mesothelioma patient primary cells of 0.63 ng/mL. The IC50 (ng/ml), cytotoxicity on RH21 mesothelioma patient primary cells in experiment [9] was determined as 0.73 ng/mL. This molecule showed a Kd in experiment [10] of 4.82 nM. This molecule came in with a Kd in experiment [11] of 2.15 nM. The same molecule showed a Kd in [12] of 1.41 nM. This molecule also returned a Kd in [13] of 1.48 nM. The molecule also yielded a Kd in experiment [14] of 1.26 nM. The same molecule gave a Kd in [15] of 1.04 nM. For the same molecule, the Kd in [16] was 1.3 nM. The Kd in experiment [17] worked out at 0.49 nM. This molecule displayed a Kd in experiment [18] of 1.7 nM. In experiment [19], this molecule registered a Kd of 0.44 nM.

B1: YP158 rabbit monoclonal antibody (antibody, V domains shown)
VH: QSLEESGGDLVKPGASLTLTCTASGFSFSGDYYMCWVRQAPGKGLEWIACIGGGSNTATYYATWAKGRFTISKTSSTTVTLQMTSLTAADTATYFCARDLGFVDYALELWGPGTLVTVSS
VL: DIVMTQTPASVEVAVGGTVTIKCQASENMYNSLAWYQQKPGQPPKLLIYRASTLESGVPSRFKGSGSGTEYTLTISDLECADAATYYCQCTFYSHNNNYGGAFGGGTEVVV
notes: Rabbit hybridoma mAb (rabbit IgG)
B1: the binding result in experiment [20] is reported as “binds”.

B2: YP218 rabbit monoclonal antibody (antibody, V domains shown)
VH: QQQLEESGGGLVKPEGSLTLTCKASGFDLGFYFYACWVRQAPGKGLEWIACIYTAGSGSTYYASWAKGRFTISKASSTTVTLQMTSLAAADTATYFCARSTANTRSTYYLNLWGPGTLVTVSS
VL: DVVMTQTPASVSEPVGGTVTIKCQASQRISSYLSWYQQKPGQRPKLLIFGASTLASGVPSRFKGSGSGTEYTLTISDLECADAATYYCQSYAYFDSNNWHAFGGGTEVVV
On to B2, for which the Kd in experiment [21] came out at 0.91 nM.

B3: YP223 rabbit monoclonal antibody (antibody, V domains shown)
VH: QEQLEESGGDLVQPEGSLTLTCKASGLDFSSSYWICWVRQAPGKGLEWIGCRHTFTANTWSASWVNGRFTISRSTSLGTVDLKMTSLTAADTATYFCARDESNNDGWDFKLWGPGTLVTVSS
VL: AYDMTQTPASVSAAVGGTVTIKCQASQSISNYLAWYQQKPGQPPKLLIYQASTLAPGVSSRFKGSGSGTEFTLTISGVECADAATYYCQQGYTSSNVENVFGGGTGVVV
The EC50 is the concentration that produces a half-maximal response. The low end stands for a more potent agent, the high end for a less potent agent. Consider B3, for which the Kd in experiment [21] was 0.65 nM. Further, the EC50 in [22] stood at 0.5 nM.

B4: YP3 rabbit monoclonal antibody (antibody, V domains shown)
VH: QEQLVESGGGLVQPGASLTLTCTASGIDFSRYYMCWVRQAPGKGLEGIACIYIGGSGSTYYASWAKGRFTISKASSTTVTLQMTSLTAADTATYFCARGTNLNYIFRLWGPGTLVTVSS
VL: DVVMTQTPSPVSAAVGGTVTIKCQASQSINNGLAWYQQKPGQPPRLLIYSASNLESGVPSRFKGSGSGTEFTLTISDLECDDAATYYCQCIWDGNSYVNAFGGGTEVVV
Regarding B4, the Kd in experiment [21] came to 0.42 nM.
